Assay results taken from article PMC7583250, “Type III ATP synthase is a symmetry-deviated dimer that induces membrane curvature through tetramerization” (Nature Communications, 2020).
Each block holds one molecule with its values, some of them ahead of it.

Key:
ATPTT1 = target: T1, ATPTT1 (Tetrahymena thermophila, UniProt I7LVQ8); test: cryo-EM structure; assay type: binding; settings: co-purified native cofactor in pocket of two Rossmann folds; oxidation state not stated
T1 construct: gene TTHERM_00137990; 55-kDa Fo-wing subunit of native mitochondrial ATP synthase dimer, purified in digitonin from T. thermophila mitochondria
T1 sequence (I7LVQ8 1-480): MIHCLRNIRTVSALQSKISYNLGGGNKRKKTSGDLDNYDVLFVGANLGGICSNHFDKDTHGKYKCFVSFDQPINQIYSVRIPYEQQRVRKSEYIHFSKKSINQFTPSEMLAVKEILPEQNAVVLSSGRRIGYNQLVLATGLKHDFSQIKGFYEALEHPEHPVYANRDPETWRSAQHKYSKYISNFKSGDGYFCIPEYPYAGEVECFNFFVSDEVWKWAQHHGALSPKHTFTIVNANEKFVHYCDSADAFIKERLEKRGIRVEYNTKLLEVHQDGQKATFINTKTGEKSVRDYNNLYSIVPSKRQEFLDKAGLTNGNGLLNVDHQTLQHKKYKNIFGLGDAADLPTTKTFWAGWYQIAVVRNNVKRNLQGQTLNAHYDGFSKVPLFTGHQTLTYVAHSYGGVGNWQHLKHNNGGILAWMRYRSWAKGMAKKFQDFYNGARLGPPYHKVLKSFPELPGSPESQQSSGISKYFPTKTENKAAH

[1] = target: F1 inhibitor protein IF1 (Tetrahymena thermophila (endogenous in its mitochondria)); test: cryo-EM structure; native IF1-inhibited ATP synthase dimer purified from T. thermophila mitochondria in digitonin (25 mM Hepes/KOH pH 7.5, 25 mM KCl, 5 mM MgCl2, 0.1% w/v digitonin); 2.7 Å overall, masked refinements 2.5-3.1 Å
[2] = target: type III mitochondrial F1Fo-ATP synthase (monomer) in complex with IF1 (Tetrahymena thermophila (endogenous in its mitochondria)) (UniProt Q951C1); test: cryo-EM structure; native ATP synthase tetramer particles of the same sample; 3.3 Å overall, Fo tetramer membrane region 3.1 Å; two dimer models refined into the Fo-tetramer map
[3] = target: type III mitochondrial F1Fo-ATP synthase (monomer) in complex with IF1 (Tetrahymena thermophila (endogenous in its mitochondria)) (UniProt Q951C1); test: cryo-EM structure; native IF1-inhibited ATP synthase dimer purified from T. thermophila mitochondria in digitonin (25 mM Hepes/KOH pH 7.5, 25 mM KCl, 5 mM MgCl2, 0.1% w/v digitonin); 2.7 Å overall, masked refinements 2.5-3.1 Å
[4] = target: the molecule itself; test: as above

Molecule: NC(=O)c1ccc[n+]([C@@H]2O[C@H](COP(=O)([O-])OP(=O)(O)OC[C@H]3O[C@@H](n4cnc5c(N)ncnc54)[C@H](O)[C@@H]3O)[C@@H](O)[C@H]2O)c1 [NAD]
cryo-EM structure (ATPTT1): in ATPTT1 the binding pocket formed by two Rossmann folds contains the co-factor

B1: ATP synthase subunit-a (natural protein, UniProt Q951C1 1-446, looked up)
chain: MGRENVLPVHNDVYEDFVFTTPYFQPESTFKSVPKLFSDILLGGVEWVYTTSESVLAYDYKLWYLWSGVSNLDESFDMFFNQYWALSLSTSVFQLFYAVILDRYLSVLFQNTPYTNDWFRMMLHSKETALIWLYHPELSWHINGLNQFFTYFYGGILEFVYFDKSNPDMCILVHTLWIHLLILFLIFTGFVTILFSFYGNPNTEENTIDSDYLAASGTVEAEKEITSIDDYLGLVFAIAYVFGVFFYVHGWTSMLSHAVLLLSCYSIIIMFLFILGMPTLLLYDFGIFFLAYLKGAGKYISSVAEMMFDYTACLVFYIRILAQWIRVVLMVVTFISLSHYVSDFDITNSALIGSENQSDSMNELNTNFSMTYYILTVLPGKFIYWIYEILHTFFVVCSQFVAFFAIVFWLFLFLYTFFIIEKHEDFFSKKREERKKKLKELWNLKN
notes: ATP synthase subunit a, Tetrahymena thermophila; overall length of 446 amino acids, with 170- and 38-amino acid N- and C-terminal extensions; source: endogenous, purified from T. thermophila mitochondria within the ATP synthase (digitonin, sucrose cushion, Superose 6)
binding result [4]: binds

Next, values leading:

stoichiometry N [1]: 2
Molecule: F1 inhibitor protein IF1 (natural protein)

stoichiometry N [2]: 4
stoichiometry N [3]: 2
Molecule: type III mitochondrial F1Fo-ATP synthase (monomer) in complex with IF1 (from UniProt Q951C1 1-446)
